T1: K458A (Homo sapiens, UniProt P78325)
T1 construct: expressed on HEK293 cells; also called human ADAM8 point mutant K458A
T1 sequence (ADAM8, looked up): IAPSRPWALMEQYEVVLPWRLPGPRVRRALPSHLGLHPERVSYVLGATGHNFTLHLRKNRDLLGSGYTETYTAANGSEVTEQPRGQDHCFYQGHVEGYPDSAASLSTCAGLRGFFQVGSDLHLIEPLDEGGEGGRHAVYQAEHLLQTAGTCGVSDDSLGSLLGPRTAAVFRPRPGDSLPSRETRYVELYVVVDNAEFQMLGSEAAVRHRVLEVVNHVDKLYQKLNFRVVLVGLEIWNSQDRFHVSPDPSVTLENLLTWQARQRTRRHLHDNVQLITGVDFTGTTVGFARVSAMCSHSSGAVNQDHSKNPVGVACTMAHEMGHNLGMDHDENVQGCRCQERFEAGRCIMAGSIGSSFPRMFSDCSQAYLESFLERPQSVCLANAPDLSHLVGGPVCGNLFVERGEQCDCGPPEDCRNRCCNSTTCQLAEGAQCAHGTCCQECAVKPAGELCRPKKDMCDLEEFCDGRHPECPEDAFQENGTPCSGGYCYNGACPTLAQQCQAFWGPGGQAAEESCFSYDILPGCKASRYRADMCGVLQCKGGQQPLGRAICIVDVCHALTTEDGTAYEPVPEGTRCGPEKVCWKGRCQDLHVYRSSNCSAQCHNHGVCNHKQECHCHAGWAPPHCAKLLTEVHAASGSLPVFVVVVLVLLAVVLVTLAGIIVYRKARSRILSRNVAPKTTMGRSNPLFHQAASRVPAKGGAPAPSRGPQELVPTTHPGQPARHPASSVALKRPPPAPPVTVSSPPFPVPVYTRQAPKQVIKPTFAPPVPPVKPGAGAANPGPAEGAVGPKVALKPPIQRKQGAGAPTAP

T2: A462S (Homo sapiens, UniProt P78325)
T2 construct: expressed on HEK293 cells; also called human ADAM8 point mutant A462S
T2 sequence (ADAM8, looked up): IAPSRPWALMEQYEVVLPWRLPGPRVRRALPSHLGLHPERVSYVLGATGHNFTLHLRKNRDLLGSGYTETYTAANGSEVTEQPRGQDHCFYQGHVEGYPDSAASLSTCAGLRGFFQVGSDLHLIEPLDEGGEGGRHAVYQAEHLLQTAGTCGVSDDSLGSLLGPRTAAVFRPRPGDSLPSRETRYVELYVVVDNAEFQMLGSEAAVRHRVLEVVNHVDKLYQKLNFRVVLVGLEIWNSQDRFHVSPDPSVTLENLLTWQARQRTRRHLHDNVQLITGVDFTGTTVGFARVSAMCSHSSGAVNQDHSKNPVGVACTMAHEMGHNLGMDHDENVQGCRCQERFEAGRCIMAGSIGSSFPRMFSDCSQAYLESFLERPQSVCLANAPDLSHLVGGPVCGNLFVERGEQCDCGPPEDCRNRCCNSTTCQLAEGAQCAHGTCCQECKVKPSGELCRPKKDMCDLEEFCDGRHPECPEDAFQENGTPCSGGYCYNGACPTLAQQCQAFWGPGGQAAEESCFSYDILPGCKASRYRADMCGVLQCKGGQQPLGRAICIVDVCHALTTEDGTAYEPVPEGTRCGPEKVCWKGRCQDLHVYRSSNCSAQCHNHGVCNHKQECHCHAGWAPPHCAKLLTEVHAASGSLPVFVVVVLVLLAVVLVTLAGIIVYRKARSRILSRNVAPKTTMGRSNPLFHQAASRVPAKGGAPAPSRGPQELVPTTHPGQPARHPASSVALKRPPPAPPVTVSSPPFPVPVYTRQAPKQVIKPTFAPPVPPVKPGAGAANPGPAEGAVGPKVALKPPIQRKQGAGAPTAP


Legend:
K458A = target: T1, K458A; assay: high-throughput flow cytometry, HEK293 cells with mutant ADAM8, high stringency; range in parentheses; dotted box
Experimental: (§1) A variety of experimental parameters were optimized for high-throughput flow cytometry including blocking buffer, and primary and secondary antibody concentrations, to identify the optimal conditions for screening. Through these studies ADP2 and ADP13 were determined to be high affinity binding antibodies.
(§2) Thus, for these studies antigen-binding fragments (Fabs) of ADP2 and ADP13, which bind with lower affinity than the full antibody, were generated. In addition, higher binding stringency conditions were tested, such as increased pH, salinity, and temperature, and/or increased washing, to weaken binding sufficiently to allow identification of critical binding residues in flow cytometry. The final experimental flow cytometry conditions were: primary antibody incubation with ADP2 Fab (0.50 μg/ml), ADP13 Fab (5.00 μg/ml) and Control Ab (0.16 μg/ml) for 60 minutes in flow cytometry buffer containing 10% goat serum in PBS (Ca²⁺ and Mg²⁺ free). […] Samples were washed three times after primary antibody incubation and twice after secondary antibody incubation with PBS (Ca²⁺ and Mg′ free). Next, HEK293 cells expressing WT or mutated ADAM8 proteins or EV DNA were incubated with ADP2 or ADP13 Fabs or Control Ab at their optimal concentrations. Fab binding was detected using Alexa Fluor 488-conjugated secondary antibodies and mean cellular fluorescence determined using the Intellicyt iQue flow cytometry platform. […] This counter-screen strategy facilitates the exclusion of mutants that are locally misfolded or that have an expression defect. Binding of each test Fab to each mutant clone in the alanine scanning library was determined, in duplicate, by high-throughput flow cytometry.

A462S = target: T2, A462S; assay: as above
Experimental: as §1, §2

Binding Reactivity (% WT) (K458A)	Binding Reactivity (% WT) (A462S)	Binder
28 % WT	–	ADP2 Fab (Fab, V domains shown) VH: EVKLVESGGGLVQPGGSLSLSCAASGFSFPDYYMSWVRQPPGKALEWLGFIRDSANGYTTEYIASVKGRFTFSRDNSQSILYLQMNALRAEDSATYYCARYSRYYGMDYWGQGTSVTVSS VL: SIVMTQTPKILLVSAGDRVTITCKASQTVNYDVAWYQQKPGQSPKPVIYFASNRYTGVPDRFTGSGFGTDFTFTISTVQAEDLAVYFCQQDYSAPWTFGGGTKLEIK
–	24.7 % WT	ADP13 Fab (Fab, V domains shown) VH: EVQLQQSGPEMVKPGTSVKISCKASGYTFTDYYINWVKQSHGKSLEWIGDISPNIGGATYNPKFKGKAILTVDKSARTAYMELRSLTSEDSAVYCCTRGGSSYPYFYAMDYWGQGTSVTVSS VL: DIVMSQSPSSLAVSVGEKVTMSCKSSQSLLYSSNQKKYLAWYQQKPGQSPKLLIYWASTRESGVPDRFTGSGSGTDFTLTISSVKAEDLAVYYCQQFYSYPYTFGGGTKLEINR
